Two substances from publication PMC8546688 can be followed below.

The experiment addresses His-tagged FtsZ (filamentous temperature-sensitive protein Z) (Streptococcus suis). The experiment in a line: SPR; His-tagged FtsZ immobilized onto sensor chips as the ligand; MsmK constructs in concentration series as analytes; buffer without protein as negative control. For orientation: SPR reads the build-up and loss of mass on a sensor chip optically.

In general, Kd refers to the equilibrium constant for the complex coming apart. A high value points to weaker binding. One may read the koff as the rate constant with which the complex falls apart. Read a high koff as a short-lived complex. A word on the kon: it is a measure of how fast the partners come together. Lower therefore signals slower complex formation.

For “A_MsmK, MsmK with the Walker A motif deleted, His-tagged (from UniProt A0A0H3N1P0 1-376) (enzyme)”, the Kd turned out to be 0.406 nM, the koff stood at 0.000102 s⁻¹ and the association rate constant (kon) was 251000 M⁻¹ s⁻¹.

Substance “B_MsmK, MsmK with the Walker B motif deleted, His-tagged (from UniProt A0A0H3N1P0 1-376) (enzyme)” gave a dissociation constant Kd of 0.309 nM, a koff of 0.000132 s⁻¹ and a kon of 427000 M⁻¹ s⁻¹.
